Experimental data reported in the supplement of paper PMC6757056.
± gives the standard deviation of the averaged measurements.

B1: library; a variant is named by its letters at N, in order (parent)
chain: GCUGUCACCGAGAAACUGUGAAGUAUAUCUUAAACCUGGGCACUUAAAAGAUAUAUGGAGUUAGUAGUGCAACCUGCUCGGUCUGAUGAGUCCNNNNNNGGACGAAACAGC

Assays:
cyclic di-GMP [1] = variants of: B1; experiment: normalized RNA/DNA level without ligand (relative to sTRSVctl = 100) (log10 (% of sTRSVctl)); HEK293T; ligand: cyclic di-GMP (c-di-GMP-II aptamer); higher = less ribozyme self-cleavage, higher mRNA level; settings: reporter: mCherry (pCS4076), ligand present: no
Method in brief: (§1)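 RNA level was computed as RNA reads over DNA reads divided by a spiked-in non-cleaving sequence or by the top sequences, then scaled and log-transformed. Scaling was ×100 with log10, the top group was 25 sequences, and the threshold was ≥100 DNA reads. The reads came from HEK293T cells transfected at 4 µg per 6-well well with ribozyme switch library plasmids (mCherry, or eGFP in some ligand experiments). Total RNA was extracted with EDTA 72 h after transfection, with any ligand added 1 h before it.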

cyclic di-GMP [2] = variants of: B1; experiment: normalized RNA/DNA level with ligand (relative to sTRSVctl = 100) (log10 (% of sTRSVctl)); HEK293T; ligand: cyclic di-GMP (c-di-GMP-II aptamer); ligand concentration (+) RNA-Seq: 1 mM; higher = less ribozyme self-cleavage, higher mRNA level; settings: reporter: mCherry (pCS4076), ligand present: yes
Method in brief: as §1

| Variant | normalized RNA/DNA level without ligand (log10) (cyclic di-GMP [1]) | normalized RNA/DNA level with ligand (log10) (cyclic di-GMP [2]) |
| --- | --- | --- |
| AGAGGC | 1.665 ± 0.0051 | 1.77 ± 0.13 |
| AGAGGU | 1.57 ± 0.022 | 1.73 ± 0.077 |
| AGAGGG | 1.47 ± 0.098 | 1.62 ± 0.13 |
| AGACGG | 1.62 ± 0.088 | 1.78 ± 0.089 |
| AGACCC | 1.79 ± 0.096 | 1.87 ± 0.18 |
| AGACCA | 1.75 ± 0.031 | 1.88 ± 0.15 |
| AGACCU | 1.76 ± 0.057 | 1.895 ± 0.0095 |
| CGAUUA | 1.28 ± 0.11 | 1.43 ± 0.12 |
| CGAUUG | 1.7 ± 0.019 | 1.89 ± 0.03 |
| CGAUUU | 1.43 ± 0.11 | 1.64 ± 0.13 |
| CGAUUC | 1.63 ± 0.022 | 1.81 ± 0.075 |
| CGACCC | 1.753 ± 0.014 | 1.88 ± 0.1 |
| CGACCA | 1.667 ± 0.013 | 1.77 ± 0.12 |
| CGACCU | 1.54 ± 0.028 | 1.71 ± 0.09 |
| GGCAAA | 1.55 ± 0.074 | 1.65 ± 0.16 |
| AGAGCA | 1.806 ± 0.017 | 1.87 ± 0.098 |
| AGAGCG | 1.81 ± 0.05 | 1.84 ± 0.17 |
| AGAGCU | 1.713 ± 0.012 | 1.84 ± 0.043 |
| AGAGCC | 1.78 ± 0.041 | 1.88 ± 0.12 |
| UGAGCG | 1.8 ± 0.12 | 1.86 ± 0.16 |
| UGAGCU | 1.76 ± 0.0029 | 1.87 ± 0.1 |
| UGAGCC | 1.84 ± 0.02 | 1.91 ± 0.14 |
| UGAGCA | 1.84 ± 0.073 | 1.91 ± 0.11 |
| UGAGAG | 1.6931 ± 0.00099 | 1.87 ± 0.098 |

| Variant | normalized RNA/DNA level without ligand (log10) (cyclic di-GMP [1]) | normalized RNA/DNA level with ligand (log10) (cyclic di-GMP [2]) |
| --- | --- | --- |
| UGAGAC | 1.71 ± 0.022 | 1.8 ± 0.093 |
| UGAGAU | 1.608 ± 0.0039 | 1.78 ± 0.11 |
| UGAGAA | 1.6654 ± 7.7e-05 | 1.81 ± 0.1 |
| UGCAAA | 1.74 ± 0.0094 | 1.84 ± 0.1 |
| GGAUCC | 1.86 ± 0.058 | 1.93 ± 0.055 |
| GGAUCA | 1.63 ± 0.02 | 1.77 ± 0.13 |
| AGAGUU | 1.6 ± 0.016 | 1.8 ± 0.14 |
| AGAGUG | 1.72 ± 0.029 | 1.8 ± 0.09 |
| AGAGUC | 1.6 ± 0.02 | 1.76 ± 0.097 |
| AGAGUA | 1.66 ± 0.029 | 1.73 ± 0.081 |
| AGAUAU | 1.61 ± 0.046 | 1.78 ± 0.14 |
| AGAUAG | 1.53 ± 0.11 | 1.71 ± 0.086 |
| AGAUAC | 1.64 ± 0.029 | 1.79 ± 0.12 |
| UGAUUC | 1.71 ± 0.019 | 1.86 ± 0.08 |
| UGAUUG | 1.718 ± 0.017 | 1.88 ± 0.088 |
| UGAUUA | 1.704 ± 0.011 | 1.84 ± 0.11 |
| CGAGUC | 1.76 ± 0.065 | 1.88 ± 0.12 |
| CGAGUG | 1.7 ± 0.049 | 1.83 ± 0.15 |
| CGAGUU | 1.72 ± 0.08 | 1.84 ± 0.094 |
| CGAGUA | 1.7354 ± 0.0011 | 1.79 ± 0.11 |
| GGACUC | 1.757 ± 0.0094 | 1.92 ± 0.082 |
| UGACUG | 1.7 ± 0.033 | 1.84 ± 0.11 |
| UGACUU | 1.68 ± 0.043 | 1.85 ± 0.13 |
| UGACUA | 1.665 ± 0.0041 | 1.78 ± 0.084 |

| Variant | normalized RNA/DNA level without ligand (log10) (cyclic di-GMP [1]) | normalized RNA/DNA level with ligand (log10) (cyclic di-GMP [2]) |
| --- | --- | --- |
| GGACCU | 1.74 ± 0.07 | 1.85 ± 0.05 |
| GGACCA | 1.72 ± 0.021 | 1.81 ± 0.021 |
| CGAUCA | 1.6 ± 0.026 | 1.74 ± 0.12 |
| CGAUCG | 1.8 ± 0.04 | 1.87 ± 0.1 |
| CGAUCU | 1.52 ± 0.053 | 1.7 ± 0.073 |
| CGAUCC | 1.82 ± 0.026 | 1.9 ± 0.088 |
| CGAGGA | 1.54 ± 0.027 | 1.65 ± 0.084 |
| CGAGGG | 1.617 ± 0.014 | 1.76 ± 0.036 |
| CGAGGC | 1.74 ± 0.027 | 1.85 ± 0.079 |
| CGAGGU | 1.72 ± 0.038 | 1.84 ± 0.096 |
| CGAGCC | 1.824 ± 0.0092 | 1.88 ± 0.083 |
| CGAGCU | 1.82 ± 0.022 | 1.88 ± 0.077 |
| CGAGCA | 1.83 ± 0.067 | 1.89 ± 0.12 |
| CGACGU | 1.66 ± 0.034 | 1.84 ± 0.048 |
| CGACGG | 1.667 ± 0.013 | 1.8 ± 0.16 |
| CGACGC | 1.74 ± 0.04 | 1.82 ± 0.12 |
| UGACAU | 1.62 ± 0.074 | 1.81 ± 0.075 |
| UGAUAA | 1.633 ± 0.011 | 1.8 ± 0.089 |
| AGAGAU | 1.661 ± 0.0087 | 1.79 ± 0.11 |
| AGAGAG | 1.46 ± 0.09 | 1.64 ± 0.14 |
| AGAGAC | 1.56 ± 0.035 | 1.69 ± 0.088 |
| UGACCC | 1.798 ± 0.013 | 1.89 ± 0.087 |
| UGACCU | 1.72 ± 0.016 | 1.87 ± 0.087 |
| UGACCA | 1.7585 ± 0.0012 | 1.88 ± 0.074 |

| Variant | normalized RNA/DNA level without ligand (log10) (cyclic di-GMP [1]) | normalized RNA/DNA level with ligand (log10) (cyclic di-GMP [2]) |
| --- | --- | --- |
| UGAUGG | 1.68 ± 0.081 | 1.83 ± 0.066 |
| UGAUGC | 1.754 ± 0.01 | 1.84 ± 0.09 |
| GGAUAC | 1.67 ± 0.049 | 1.78 ± 0.16 |
| GGAGAC | 1.72 ± 0.035 | 1.85 ± 0.059 |
| CGAUAC | 1.61 ± 0.033 | 1.77 ± 0.084 |
| CGAUAG | 1.7 ± 0.056 | 1.87 ± 0.12 |
| GGAGCC | 1.85 ± 0.011 | 1.9 ± 0.1 |
| AGAUCG | 1.72 ± 0.051 | 1.88 ± 0.061 |
| AGAUCC | 1.81 ± 0.016 | 1.89 ± 0.038 |
| AGAUCA | 1.59 ± 0.076 | 1.74 ± 0.081 |
| AGAUCU | 1.72 ± 0.045 | 1.85 ± 0.084 |
| UGAUCU | 1.72 ± 0.023 | 1.86 ± 0.11 |
| UGAUCA | 1.76 ± 0.073 | 1.88 ± 0.11 |
| UGAUCC | 1.89 ± 0.055 | 1.98 ± 0.075 |
| UGAUCG | 1.77 ± 0.053 | 1.84 ± 0.15 |
| GGACGC | 1.656 ± 0.0062 | 1.82 ± 0.1 |
| UGAGGU | 1.61 ± 0.052 | 1.79 ± 0.12 |
| UGAGGG | 1.63 ± 0.045 | 1.79 ± 0.083 |
| UGAGGA | 1.54 ± 0.091 | 1.75 ± 0.088 |
| UGAGGC | 1.74 ± 0.028 | 1.87 ± 0.12 |
| CGAUGG | 1.67 ± 0.07 | 1.81 ± 0.073 |
| CGAUGU | 1.75 ± 0.025 | 1.91 ± 0.11 |
| CGAGAC | 1.643 ± 0.0051 | 1.77 ± 0.16 |
| CGAGAG | 1.72 ± 0.022 | 1.84 ± 0.033 |

| Variant | normalized RNA/DNA level without ligand (log10) (cyclic di-GMP [1]) | normalized RNA/DNA level with ligand (log10) (cyclic di-GMP [2]) |
| --- | --- | --- |
| UGAGUA | 1.73 ± 0.032 | 1.85 ± 0.15 |
| UGAGUU | 1.67 ± 0.017 | 1.8 ± 0.091 |
| AGACUU | 1.679 ± 0.0077 | 1.84 ± 0.13 |
| AGACUC | 1.74 ± 0.054 | 1.83 ± 0.094 |
| AGACUG | 1.749 ± 0.013 | 1.84 ± 0.071 |
| CGACUU | 1.44 ± 0.089 | 1.63 ± 0.12 |
| CGACUC | 1.72 ± 0.03 | 1.86 ± 0.14 |
| CGACAU | 1.43 ± 0.16 | 1.63 ± 0.12 |
| UGACGG | 1.68 ± 0.039 | 1.82 ± 0.11 |
| UGACGU | 1.57 ± 0.12 | 1.74 ± 0.13 |
| UGACGA | 1.595 ± 0.015 | 1.78 ± 0.091 |
| AGAUGG | 1.55 ± 0.089 | 1.73 ± 0.082 |
| AGAUGU | 1.56 ± 0.036 | 1.77 ± 0.054 |
| GGAGUC | 1.55 ± 0.046 | 1.79 ± 0.051 |
| AGAUUU | 1.66 ± 0.052 | 1.81 ± 0.17 |
| AGAUUG | 1.58 ± 0.049 | 1.77 ± 0.081 |
| AGAUUC | 1.7 ± 0.021 | 1.85 ± 0.093 |
| AGACAU | 1.62 ± 0.027 | 1.79 ± 0.12 |
| AGACAG | 1.55 ± 0.049 | 1.75 ± 0.15 |
| GGAUGC | 1.7 ± 0.079 | 1.83 ± 0.067 |
